Reference: publication PMC4977500, “Rescuing neuronal cell death by RAIDD- and PIDD- derived peptides and its implications for therapeutic intervention in neurodegenerative diseases” (Scientific Reports, 2016)

B2: RAIDD DD (domain or fragment)
chain: not shown
notes: RAIDD death domain, amino acids 94-199; also called RAIDD death domain; source: E. coli BL21 (DE3) RILP, purified
B3: PIDD DD (domain or fragment, UniProt Q9HB75 777-883, looked up)
chain: LNLGDAETGFLTQSNLLSVAGRLGLDWPAVALHLGVSYREVQRIRHEFRDDLDEQIRHMLFSWAERQAGQPGAVGLLVQALEQSDRQDVAEEVRAVLELGRRKYQDS
notes: PIDD death domain, amino acids 777-883; The His tag is named on the protein for the pull-down; also called his-tagged PIDD DD; PIDD death domain; source: E. coli BL21 (DE3) RILP, purified

Assays:
Details in all cases: both partners purified
PIDD DD = target: B3; test: native gel or EMSA; native-PAGE on a PhastSystem, 8-25% acrylamide gradient gels, Coomassie staining; complexes in 20 mM Tris pH 8.0, 50 mM NaCl; pre-incubated with or without peptide for 1 hour at room temperature; complex band without peptide taken as 100%
full-length RAIDD = target: T1, full-length RAIDD (UniProt P78560 1-199); test: as above
T1 construct: RAIDD, full length, amino acids 1-199; source: E. coli BL21 (DE3), purified (Ni-NTA, S-200 gel filtration)
T1 sequence (P78560 whole entry, the tested form may be a part): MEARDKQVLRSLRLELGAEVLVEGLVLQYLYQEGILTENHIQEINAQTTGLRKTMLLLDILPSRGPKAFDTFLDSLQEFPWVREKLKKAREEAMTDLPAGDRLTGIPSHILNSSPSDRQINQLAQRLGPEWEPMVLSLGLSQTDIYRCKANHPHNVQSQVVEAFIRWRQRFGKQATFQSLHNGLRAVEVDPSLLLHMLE

[1] = target: T2, Full-length RAIDD without any tag (UniProt P78560 1-199); test: pull-down; his-tagged PIDD DD on Ni-NTA beads, full-length RAIDD without any tag, with RDH3 or PDH3 (30 μM or 500 μM); wash 20 mM Tris-HCl pH 7.9, 500 mM NaCl, 30 mM imidazole; eluate on SDS-PAGE
T2 construct: RAIDD, full length, amino acids 1-199; source: E. coli BL21 (DE3), purified
T2 sequence (P78560 whole entry, the tested form may be a part): as above

RAIDD DD = target: B2; test: native gel or EMSA; native-PAGE on a PhastSystem, 8-25% acrylamide gradient gels, Coomassie staining; complexes in 20 mM Tris pH 8.0, 50 mM NaCl; pre-incubated with or without peptide for 1 hour at room temperature; complex band without peptide taken as 100%
Chain of RAIDD DD (P78560 94-199): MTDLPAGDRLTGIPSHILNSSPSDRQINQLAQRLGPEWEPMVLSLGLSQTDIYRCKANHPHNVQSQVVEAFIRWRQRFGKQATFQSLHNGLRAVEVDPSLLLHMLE

B1: RDH3 (TAT-fused peptide with wildtype RAIDD DD helix 3) (peptide)
peptide: YGRKKRRQRRRGGGGLSQTDIYRCKANHPHNV
notes: RAIDD helix 3 (H3 of the death domain), wildtype; FITC-labelled versions were also made, but only for microscopy of cell entry; also called RAIDD DD H3; source: synthetic peptide (Peptron)
In the case of B1, the “fold inhibitory capacity against TAT-Y814A (blocking of RAIDD DD:PIDD DD)” value (PIDD DD) is reported as over 5 fold.

B2: binds (PIDD DD).

B3: binds (full-length RAIDD); binds [1].

B4: PDH3 (TAT-fused peptide with wildtype PIDD DD helix 3) (peptide)
peptide: YGRKKRRQRRRGGGGVSYREVQRIRHEFR
notes: PIDD helix 3 (H3 of the death domain), wildtype; FITC-labelled versions were also made, but only for microscopy of cell entry; also called PIDD H3; source: synthetic peptide (Peptron)
With B4 the “fold inhibitory capacity against TAT-Y814A (blocking of RAIDD DD:PIDD DD)” value (RAIDD DD) was over 5 fold.
